Results from PMC6980832, “Crystal structures of Triosephosphate Isomerases from Taenia solium and Schistosoma mansoni provide insights for vaccine rationale and drug design against helminth parasites” (PLoS Neglected Tropical Diseases, 2020).

Key:
Test in all cases: SEC; gel filtration elution profile of wild-type and point mutants of SmTPI; conditions not shown
[1] = target: SmTPI-C221D (Schistosoma mansoni)
[2] = target: SmTPI-C221K (Schistosoma mansoni)
[3] = target: SmTPI-C221S (Schistosoma mansoni)
[4] = target: SmTPI-C221Y (Schistosoma mansoni)

Substance: SmTPI-C221D (enzyme)
- stoichiometry N [1]: 2

Substance: SmTPI-C221K (enzyme)
- stoichiometry N [2]: 2

Substance: SmTPI-C221S (enzyme)
- stoichiometry N [3]: 2

Substance: SmTPI-C221Y (enzyme)
- stoichiometry N [4]: 2
